From patent US20190248902A1 (published 2019)
Where a chain is given by its changes, count along the chain named. Each block holds one binder with its values, some of them ahead of it.

What was measured:
[1] = target: T1, recombinant, soluble human ASGR-1 (human, UniProt P07306 62-291); test: Octet BLI dissociation, pH 7.4 minus calcium
T1 construct: biotinylated in the binning assay; also called soluble huASGR-1; Soluble ASGR-1 (Amgen)
T1 sequence: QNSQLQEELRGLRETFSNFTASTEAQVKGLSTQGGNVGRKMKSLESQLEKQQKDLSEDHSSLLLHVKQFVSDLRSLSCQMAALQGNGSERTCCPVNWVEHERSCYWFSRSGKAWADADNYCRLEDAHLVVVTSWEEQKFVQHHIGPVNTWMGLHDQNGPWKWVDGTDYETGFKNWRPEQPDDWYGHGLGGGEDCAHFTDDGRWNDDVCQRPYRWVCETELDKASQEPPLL
Method: (§1) The relative dissociation of ASGR-1 from antibodies was measured using a label-free assay on an OctetHTX instrument (Fortebio). Antibody samples were captured on anti-HuFc kinetic biosensors (ForteBio cat #18-5064) at 5 ug/mL in assay buffer (10 mM Tris, 0.1% Triton, 150 mM NaCl, 1 mg/mL BSA, 1 mM CaCl2, pH7.4) for three minutes. A one minute baseline stabilization step was performed in assay buffer. Soluble ASGR-1 (Amgen) at 6 ug/ml in assay buffer was added and association to the antibodies was monitored for two minutes. Subsequent dissociation of ASGR-1 from the antibodies was performed by incubating the ASGR-1-mAb complexes for 10 minutes under each of the following conditions:
(§2) The binding signal at the end of the 2 minute association phase for each dissociation experiment was set to 100% and used to represent the maximal level of ASGR-1 binding. After 1 minute of dissociation, the percentage of ASGR-1 remaining bound was calculated. The lower the percent remaining at a given time point indicates increased levels of dissociation in response to the test conditions (ie. different pH and/or calcium concentrations). The change in the percentage of ASGR-1 remaining bound in response to each test condition relative to the percent remaining in the control conditions (ie. pH 7.4+calcium) was determined. Cut-offs for an antibody to be categorized as being sensitive to a particular condition were set to >10% (ie. if >10% of the ASGR-1 dissociates from the antibody under a particular test condition compared to control condition, it was deemed sensitive to that condition). The analysis was done using the 1 minute dissociation time point (except for mAb 149A1 which was binned based on the 4 minute dissociation time point). Using this analysis, the ASGR-1-binding, receptor-ligand blocking antibodies were separated into groups according to their dissociation profiles in response to pH and calcium (Table 7.3). Antibodies belonging to each category were observed.

[2] = target: T1, recombinant, soluble human ASGR-1; test: Octet BLI dissociation, pH 5.6 plus calcium
Method: as §1, §2

[3] = target: T1, recombinant, soluble human ASGR-1; test: Octet BLI dissociation, pH 5.6 minus calcium
Method: as §1, §2

B1: 6G7 (antibody, V domains shown)
VH: QVQLVESGGGVVQPGRSLRLSCAASGFTFSSYGMHWVRQTPGKGLEWVAIISYVGKNKYYADSVKGRFTISRDNSKNTLYLQMNSLRAEDTAVYYCARRGNSYGGYGMDVWGQGTTVTVSS
VL: DIQMTQSPSSRSASVGDRVTITCQASQDISNYLNWCQQKPGKALKLLIYDASTLETGVPSRFSGSGSGTDFTFTISSVQPEDIATYYCQQYDNVPITFGQGTRLEIK
notes: hybridoma mAb
% Change Compared to pH 7.4 + Calcium [1]: 8%
% Change Compared to pH 7.4 + Calcium [2]: 4%
% Change Compared to pH 7.4 + Calcium [3]: 16%

B2: 72F5 (antibody, V domains shown)
VH: EVQLLESGGGLVQPGGSLRLSCAASGFTFSSYAMIWVRQAPGKGLEWVSTISGSGGYTYSADSVKGRFTISRDNSKNTLYLQMNSLRAEDTAVYYCARRIAVTGTEWYDPWGQGTLVTVSS
VL: DIQMTQSPSSLSASVGDRVIIPCRASQNISSYLNWYQQKPGKAPKLLIYAASSLQSGVPSRFSGSGSGTDFTLTISSLQPEDFATYSCQQTYSTPTFGQGTRLDIN
notes: hybridoma mAb
% Change Compared to pH 7.4 + Calcium [1]: 64%
% Change Compared to pH 7.4 + Calcium [2]: 20%
% Change Compared to pH 7.4 + Calcium [3]: 30%

B3: 147D10 (antibody, V domains shown)
VH: EVQLLESGGGLVQPGGSLRLSCAASGFTFSSYAMSWVRQAPGKGLEWVSAISGRGGNTFYADSVKGRFTISRDNSKNTLYLQMNSLRAEDTAVYYCAKKDYDYVWGSPYFDYWGQGTLVTVSS
VL: DIQMTQSPASVSASVGDRVTITCRASQNISNWLTWYQQKPGKAPKLLIYAASSLQSGVPSRFSGSGSGTDFTLSISSLQPEDFATYYCQQTDSFPFTFGPGTKVDVK
notes: hybridoma mAb
% Change Compared to pH 7.4 + Calcium [1]: 13%
% Change Compared to pH 7.4 + Calcium [2]: 4%
% Change Compared to pH 7.4 + Calcium [3]: 11%

B6: 52H2 (antibody, V domains shown)
VH: EVQLLESGGGLVQPGGSLRLSCAASGFTFSRNAMSWVRQAPGMGLEWVSAISGRGGNTFYADSVKGRFTVSRDNSKNTLFLQMNSLRAEDTAVYYCAKNGREQWLDYWGQGTLVTVSS
VL: DIQMTQSPSSVSASVGDRVTITCRASQNITNWLAWFQQKPGRAPKLLIYTTSSLQSGVPSRFSGSGSGTDFTLTISSLQPEDFATYCCQQTNSFPWTFGHGTKVEVK
notes: hybridoma mAb
% Change Compared to pH 7.4 + Calcium [1]: 26%
% Change Compared to pH 7.4 + Calcium [2]: 11%
% Change Compared to pH 7.4 + Calcium [3]: 32%

B7: 65F10 (antibody, V domains shown)
VH: QVQLVQSGAEVKKPGASVKVSCKASGYTFTGYHMHWVRQAPGQGLEWMGWINPNNGGTSYAQKFQDRVNMTRDTSISTAYMELSRLRSDDTAVYYCARDSRSSWDYWGQGTLVTVSS
VL: DIQMTQSPSSVSASVGDRVTITCRGGQGISTWLAWYQQKPGKAPKLLIYAASILQSGVPSRFRGRGSGTDFTLTISSLQPEDFATYYCQQGNIFPFTFGRGTKVDIK
notes: hybridoma mAb
% Change Compared to pH 7.4 + Calcium [1]: 25%
% Change Compared to pH 7.4 + Calcium [2]: 18%
% Change Compared to pH 7.4 + Calcium [3]: 37%

B11: 9G9 (antibody, V domains shown)
VH: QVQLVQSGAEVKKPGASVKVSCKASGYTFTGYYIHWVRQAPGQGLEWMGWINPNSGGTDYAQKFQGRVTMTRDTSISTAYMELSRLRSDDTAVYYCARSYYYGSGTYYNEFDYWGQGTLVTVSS
VL: QSVLTQPPSASGTPGQRVNMSCSGTNSNIGSYTVNWYQQLPGTAPKLLIYINNQRPSGVPDRFSGSKSGTSASLAISGLQSEDEADYYCAAWDDSLNGHVVFGGRTKLTVL
notes: hybridoma mAb
% Change Compared to pH 7.4 + Calcium [1]: 25%
% Change Compared to pH 7.4 + Calcium [2]: 38%
% Change Compared to pH 7.4 + Calcium [3]: 55%

B12: 184E7 (antibody, V domains shown)
VH: QVQLVQSGAEVKTPGASVKVSCRASGYTFTSYNMHWVRQVPGQGLEWMGWINPNNGGSNYTQKFQGRVTMTRDTSISTAYMELSRLRSDDTAVYYCARKFGDWGQGTLVTVSS
VL: DIQMTQSPSSRSASIGERVTITCRASQGISNYLAWIQQKPGTAPKSLIYAASSLQSGVSSRFSGSGFGTDFTITISSVQREDFATYYCQQYNGYPFTFGHGTKVDIK
notes: hybridoma mAb
% Change Compared to pH 7.4 + Calcium [1]: 1%
% Change Compared to pH 7.4 + Calcium [2]: -9%
% Change Compared to pH 7.4 + Calcium [3]: -3%

B13: 7F4 (antibody, V domains shown)
VH: QLQLQESGPGLVKPSETLSLTCTVSGGSISRSSYYWGWIRQPPGKGLEWIGNIYYSGATYYNPSLKSRVTISVDTSTNQFSLKLSSVTAADTAVYYCARHSGSWSLDYWGQGTLVTVSS
VL: DIQMTQSPSSLSASVGDRVTITCRTSQGIRNDLGWYQQKPGKAPKRLIYAASNLQSGVPSRFSGSGSGTEFTLTISSLQPEDFATYYCLQHSAYPLTFGGGTKVEIK
notes: hybridoma mAb
% Change Compared to pH 7.4 + Calcium [1]: 4%
% Change Compared to pH 7.4 + Calcium [2]: 6%
% Change Compared to pH 7.4 + Calcium [3]: 9%

B14: 68G6 (antibody, V domains shown)
VH: QVQLVQFGGEVKKPGSSVKVSCKASGYTFTGYYMHWVRQAPGQGLEWMGSIYRNSGGTNYAQKFQGRVTMTRDKSISTAYMEKSRIRSDDTAVYYCARAFYYGSGTYYNEFDYWGQGTLVTVSS
VL: SYEVTQPPSVSVSPGQTASITCSGDKLGDKYTYWYQQKAGQSPFLVIYQDRKRPSGIPDRFSGSNSGNTATLTISGTQAMDAADFYCQAWDNSTAVFGGGTKLTVL
notes: hybridoma mAb
% Change Compared to pH 7.4 + Calcium [1]: 22%
% Change Compared to pH 7.4 + Calcium [2]: 39%
% Change Compared to pH 7.4 + Calcium [3]: 47%

B17: 64G12 (antibody, V domains shown)
VH: EVQLLESGGGLVQPGGSLRLSCAASGFTFSSNAMSWVRQAPGKGLEWVSVISGSGGSTYYADSVKGRFTISRDNSKNTLYLQMNSLRAEDTALYYCAKRNYDDAFDIWGQGTMVTVSS
VL: DIQMTQSPSSVSASVGDRVTITCRASQNITTWLAWYQQKPGKAPKLLISAASSLQSGVPSRFSGSGSGTDFTLTISSLQPEDFATYICQQANSFPFTFGPGTKLDIK
notes: hybridoma mAb
% Change Compared to pH 7.4 + Calcium [1]: 24%
% Change Compared to pH 7.4 + Calcium [2]: 10%
% Change Compared to pH 7.4 + Calcium [3]: 24%

Continued, values first:

% Change Compared to pH 7.4 + Calcium [1]: 1%
% Change Compared to pH 7.4 + Calcium [2]: -8%
% Change Compared to pH 7.4 + Calcium [3]: -1%
B4: 149F8 (antibody, V domains shown)
VH: B3 VH
VL: B3 VL with N28G, T34A, S65N, G66E, T85I
notes: hybridoma mAb

% Change Compared to pH 7.4 + Calcium [1]: 11%
% Change Compared to pH 7.4 + Calcium [2]: 3%
% Change Compared to pH 7.4 + Calcium [3]: 11%
B5: 149D11 (antibody, V domains shown)
VH: B3 VH with L81R
VL: B3 VL
notes: hybridoma mAb

% Change Compared to pH 7.4 + Calcium [1]: 14%
% Change Compared to pH 7.4 + Calcium [2]: 25%
% Change Compared to pH 7.4 + Calcium [3]: 42%
B8: 6D9 (antibody, V domains shown)
VH: EVQLVESGGGLVKPGGSLRLSCAASGFTFSNAWMNWVRLAPGKGLEWVGRIKSKTDGGTTDYAAPVKGRFTISRDDSENTLYLQMNSLKTEDTAVYYCSTDTGPIAARLAYYYYYAMDVWGQGTTVTVSS
VL: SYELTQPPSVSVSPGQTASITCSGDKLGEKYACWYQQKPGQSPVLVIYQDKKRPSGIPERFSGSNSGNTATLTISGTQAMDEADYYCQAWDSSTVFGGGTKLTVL
notes: hybridoma mAb

% Change Compared to pH 7.4 + Calcium [1]: 5%
% Change Compared to pH 7.4 + Calcium [2]: -4%
% Change Compared to pH 7.4 + Calcium [3]: 20%
B9: 147E9 (antibody, V domains shown)
VH: EVQLVESGGGLVQPGGSLRLSCAASGFTFSSYSMNWVRQAPGKGLEWVSSISGRNTTIYYADSVKGRFTISRDNAKNSLYLQMNSLRDEDTAVYYCSRDRGSCWGQGTLVTVSS
VL: DIQMTQSPSSLSASVGDRVTITCRASQDINNYLAWFQQKPGKAPKSLIVAASSLQSGVPSKFSGSGSGTDFTLTISSLQPEDFATYYCQQYNSYPLTFGGGTKVEIK
notes: hybridoma mAb

% Change Compared to pH 7.4 + Calcium [1]: 4%
% Change Compared to pH 7.4 + Calcium [2]: -6%
% Change Compared to pH 7.4 + Calcium [3]: 0%
B10: 48B12 (antibody, V domains shown)
VH: EVQLLESGGGLVQPGGSLRLSCAASGFTFSSYAMNWVRQAPGKGLEWVSAISGRGGNTFYADSVKGRFTISRDNSKNTLYLQMNSLRAEDTAVYYCAKRETYNWNYEGFDYWGQGTLVTVSS
VL: SYELTQPPSVSVSPGQTARITCSGDALPKKYAYWYQQKSGQAPVLVIYEDSKRPSGIPERFSGSSSGTMATLTISGAQVEDEADYYCNSTDSSGNHVVFGGGTKLTVL
notes: hybridoma mAb

% Change Compared to pH 7.4 + Calcium [1]: 9%
% Change Compared to pH 7.4 + Calcium [2]: 5%
% Change Compared to pH 7.4 + Calcium [3]: 14%
B15: 7E11 (antibody, V domains shown)
VH: QVQLVESGGGVVQPGRSLRLSCAASGFTFSSFGMHWVRQAPGKGLEWVAIIWHDGSNKYYADSVKGRFTISRDNSNNTLYLQMSSLRAEDTAVYYCARDLSMGGMDVWGQGTTVTVSS
VL: DIQMTQSPSSLSASVGDRVTIACRASQNIISYLNWYQQKPGKAPKFLIYTASSLQSGVPSRFSGSGSGTDFTLTISSLQPEDFAIYYCQQTYSTPLTFGGGTKVEIK
notes: hybridoma mAb

% Change Compared to pH 7.4 + Calcium [1]: 1%
% Change Compared to pH 7.4 + Calcium [2]: -3%
% Change Compared to pH 7.4 + Calcium [3]: 0%
B16: 6G6 (antibody, V domains shown)
VH: QVQLVQSGAEVRKPGASVKVSCKASGYTFTNYDINWVRQATGQGPEWMGWMHPNSGNTGYAKKFQGRVTMTRNTSISAAYMVLSSLRSEDTAVYYCALSSGWYYFDYWGQGTLVTVSS
VL: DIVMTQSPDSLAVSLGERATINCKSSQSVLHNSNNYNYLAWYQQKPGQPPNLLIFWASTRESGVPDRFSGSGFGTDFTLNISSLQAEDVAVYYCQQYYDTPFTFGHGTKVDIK
notes: hybridoma mAb
